In experiment [1] the target is T1, rHuman Erythropoietin R/Fc Chimera, CF (R&D Systems Cat#963-ER) (human, UniProt P19235 25-250).
T1 construct: Bought from R&D Systems; also called EPO R/Fc; Epo R/Fc chimera; not shown: Fc of the bought chimera
T1 sequence (looked up): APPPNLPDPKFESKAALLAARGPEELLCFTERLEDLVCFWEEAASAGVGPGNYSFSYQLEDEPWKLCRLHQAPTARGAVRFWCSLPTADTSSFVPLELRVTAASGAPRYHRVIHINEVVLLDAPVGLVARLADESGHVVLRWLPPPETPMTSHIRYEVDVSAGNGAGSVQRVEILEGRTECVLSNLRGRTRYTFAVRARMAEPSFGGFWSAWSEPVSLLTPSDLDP
The experiment can be described thus: MSD multispot ECL, antigen spotted on plate, Fab 352.5 nM; blank spot 494.

Experiment [2] addresses T2, rHuman P-Cadherin/Fc Chimera, CF (R&D Systems Cat#861-PC) (human, UniProt P22223 108-654).
T2 construct: Bought from R&D Systems; not shown: Fc of the bought chimera
The description is as above.

Experiment [3] deals with T3, rHuman EGF R/Fc Chimera, CF (R&D Systems Cat#344-ER) (human, UniProt P00533 25-645).
T3 construct: Bought from R&D Systems; also called epidermal growth factor receptor (EGF R); not shown: Fc of the bought chimera
The description is as above.

The target of experiment [4] is T4, rHuman ErbB2/Fc Chimera, CF (R&D Systems Cat#1129-ER) (human, UniProt P04626 23-652).
T4 construct: Bought from R&D Systems; also called human epidermal growth factor 2 receptor (ErbB2); not shown: Fc of the bought chimera
The description is as above.

In experiment [5] the target is T5, rHuman HGF R/c-MET/Fc Chimera, CF (R&D Systems Cat#358-MT/CF) (human, UniProt P08581 25-932).
T5 construct: Bought from R&D Systems; also called HGF R/Fc; hepatocyte growth factor receptor (HGF R/c-Met); not shown: Fc of the bought chimera
Described as above.

Experiment [6] has as its target T6, rHuman CD44/Fc Chimera, CF (R&D Systems Cat#3660-CD) (human, UniProt P16070 21-220).
T6 construct: Bought from R&D Systems; not shown: Fc of the bought chimera
The description is as above.

Experiment [7] addresses T7, rHuman IGF-1 sR, (IGF-1 sR), CF (R&D Systems Cat#391-GR) (human, UniProt P08069 31-932).
T7 construct: Bought from R&D Systems and called a soluble receptor; also called insulin-like growth factor-1 soluble receptor
Described as above.

Experiment [8] concerns the target T8, Recombinant Human DLL4 (R&D Systems Cat#1506-D4/CF) (human, UniProt Q9NR61 27-524).
T8 construct: Bought from R&D Systems; also called rHuman DLL4; delta-like protein 4
The description is as above.

Experiment [9] concerns the target T9, rHuman Notch-1/Fc Chimera, CF (R&D Systems Cat#3647-TK) (human, UniProt P46531 19-526).
T9 construct: Bought from R&D Systems; not shown: Fc of the bought chimera
Described as above.

Experiment [10] addresses T4, rHuman ErbB2/Fc Chimera, CF (R&D …). The experiment can be described thus: MSD multispot ECL, antigen spotted on plate, Fab 176.3 nM; blank spot 346.
The target of experiment [11] is T9, rHuman Notch-1/Fc Chimera, CF (R&D …). Described as above.
The target in experiment [12] is T10, rHuman CD44/Fc Chimera, CF (R&D Systems Cat#3660-CD) (human, UniProt P16070 21-220).
T10 construct: Bought Fc chimera; Fc part of the bought chimera not given
The experiment can be described thus: Multispot ECL (MSD) titration; antigen spotted on plate; Fab 24.5 nM; blank spot 149.

For experiment [13], the target named is T11, rHuman ErbB2/Fc Chimera, CF (R&D Systems Cat#1129-ER) (human, UniProt P04626 23-652).
T11 construct: Bought Fc chimera; also called human epidermal growth factor 2 receptor; Fc part of the bought chimera not given
The description is as above.

The target in experiment [14] is T12, rHuman Notch-1/Fc Chimera, CF (R&D Systems Cat#3647-TK) (human, UniProt P46531 19-526).
T12 construct: Bought Fc chimera; Fc part of the bought chimera not given
The description is as above.

Experiment [15] concerns the target T13, rHuman P-Cadherin/Fc Chimera, CF (R&D Systems Cat#861-PC) (human, UniProt P22223 108-654).
T13 construct: Bought Fc chimera; Fc part of the bought chimera not given
The description is as above.

Experiment [16] concerns the target T14, rHuman HGF R/c-MET/Fc Chimera, CF (R&D Systems Cat#358-MT/CF) (human, UniProt P08581 25-932).
T14 construct: Bought Fc chimera; also called HGF R/Fc; hepatocyte growth factor receptor; Fc part of the bought chimera not given
The description is as above.

Experiment [17] deals with T15, rHuman Erythropoietin R/Fc Chimera, CF (R&D Systems Cat#963-ER) (human, UniProt P19235 25-250).
T15 construct: Bought Fc chimera; also called EPO R/Fc; EPO R; Fc part of the bought chimera not given
T15 sequence (looked up): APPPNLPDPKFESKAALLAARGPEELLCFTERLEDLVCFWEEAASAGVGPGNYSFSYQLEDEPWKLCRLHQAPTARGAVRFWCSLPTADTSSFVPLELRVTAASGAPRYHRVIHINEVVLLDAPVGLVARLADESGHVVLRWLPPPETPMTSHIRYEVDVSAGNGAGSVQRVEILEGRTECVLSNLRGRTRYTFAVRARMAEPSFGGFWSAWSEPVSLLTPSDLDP
Described as above.

For experiment [18], the target named is T16, rHuman IGF-1 sR (IGF-1 sR), CF (R&D Systems Cat#391-GR) (human, UniProt P08069 31-932).
T16 construct: Bought soluble receptor; also called insulin-like growth factor-1 soluble receptor
Described as above.

Our source for the ECL signal values is US20120316071A1 (published 2012).

B1: Fab VH1-46_IGHD3-10*01_IGHJ4*01 & B3_IGKJ1*01 (Fab, V domains shown)
VH: QVQLVQSGAEVKKPGASVKVSCKASGYTFTSYYMHWVRQAPGQGLEWMGIINPSGGSTSYAQKFQGRVTMTRDTSTSTVYMELSSLRSEDTAVYYCAREYYYGSGSYYNDYFDYWGQGTLVTVSS
VL: not shown
notes: Tested as a Fab made in E. coli; VH was cloned into Plasmid A (CH1 constant region, His6 and Flag tags); The kappa VL was cloned into Plasmid C (kappa CL)
Take B1: the ECL signal in experiment [1] is 4100; in experiment [2] it was 649; in experiment [3], 769; in experiment [4], 514; in experiment [5] it was 606; in [6] it was 556. Besides, the ECL signal came to 528 in experiment [7]; 660 in experiment [8]; 715 in experiment [9]; 448 in experiment [10]; 664 in experiment [11].

B2: Fab VH1-46_IGHD3-10*01_IGHJ4*01 & O1_IGKJ1*01 (Fab, V domains shown)
VH: QVQLVQSGAEVKKPGASVKVSCKASGYTFTSYYMHWVRQAPGQGLEWMGIINPSGGSTSYAQKFQGRVTMTRDTSTSTVYMELSSLRSEDTAVYYCAREYYYGSGSYYNDYFDYWGQGTLVTVSS
VL: DIVMTQTPLSLPVTPGEPASISCRSSQSLLDSDDGNTYLDWYLQKPGQSPQLLIYTLSYRASGVPDRFSGSGSGTDFTLKISRVEAEDVGVYYCMQRIEFPSWTFGQGTKVEIKR
notes: Germline library Fab expressed in E. coli; VH was cloned into Plasmid A (CH1 constant region, His6 and Flag tags); The kappa VL was cloned into Plasmid C (kappa CL)
With B2, the ECL signal in experiment [12] worked out at 267; in [13] it was 241; in [14], 434; in experiment [15] it was 257; in experiment [16], 211; in [17], 4530. Further, the ECL signal in experiment [18] is 239.
